From patent US20060034860A1

Key:
[1] = target: HIV-1 protease, bait PR_v1 (HIV-1 isolate YU2) (UniProt P35963); assay: cell-based or functional assay
[2] = target: HIV-1 Integrase (IN), bait IN (HIV-1 isolate YU2) (UniProt P35963); assay: cell-based or functional assay
HIV-1 Integrase (IN), bait IN (HIV-1 isolate YU2), sequence (P35963 1148-1435 limits assumed): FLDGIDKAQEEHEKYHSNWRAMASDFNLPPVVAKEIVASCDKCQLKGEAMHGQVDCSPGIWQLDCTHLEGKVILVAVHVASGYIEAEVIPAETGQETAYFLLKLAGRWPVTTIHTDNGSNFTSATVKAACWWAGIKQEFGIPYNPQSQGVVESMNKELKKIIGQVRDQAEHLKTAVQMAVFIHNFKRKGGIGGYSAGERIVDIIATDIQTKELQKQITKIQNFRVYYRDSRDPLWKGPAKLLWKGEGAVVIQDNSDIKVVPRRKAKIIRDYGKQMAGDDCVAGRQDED

HIV-1 protease, bait PR_v1 (HIV-1 isolate YU2), sequence (P35963 489-587 limits assumed): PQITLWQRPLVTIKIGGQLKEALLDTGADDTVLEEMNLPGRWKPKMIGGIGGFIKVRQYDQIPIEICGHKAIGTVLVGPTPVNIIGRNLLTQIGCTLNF

Substance	inhibition of HIV-1 infection (p24 antigen in supernatant) after siRNA against AIM1, HeLa cells with CD4 and CCR5 [1] [%]	inhibition of HIV replication (p24 antigen in supernatant) after siRNA against LEDGF, HeLa cells with CD4 and CCR5 [2] [%]
Human AIM1 (prey030612), Absent in Melanoma, prey fragments, Q9Y4K1 1-2131	30	–
LEDGF p75 isoform (PSIP2), prey fragments (from UniProt O75475 340-417)	–	84
